Experiment [1] concerns the target fibronectin from human plasma (full-length soluble fibronectin) (human) (UniProt P02751). Nature of the experiment: fluorescence saturation binding, fluorophore-labeled MBP-MAM on immobilized fibronectin (coated plates).
In experiment [2] the target is fibronectin on host cells (UniProt P02751). Nature of the experiment: cell-based or functional assay.

In general, Kd refers to the concentration at which binding is half-saturated. A lower Kd goes with tighter binding. In experiment [1], “MBP-MAM6 (6xHis-MBP-Cys-six mce domains), Alexa Fluor 488-labeled” gave a Kd of 36 µM.
For “MBP-MAM7 (6xHis-MBP-Cys-MAM7, seven mce domains), Alexa Fluor 488-labeled (from UniProt P0AEX9 27-392)”, the delay of attachment of labeled MAM7 protein to trypsin-treated host cells in experiment [2] stood at 1 h.
